Assay [1] has as its system hESC line SA002. The experiment in a line: Substituting Activin A with Activin B for induction of endoderm, real-time PCR. Particulars: 100 ng/ml with 5 ng/ml bFGF, 5 days. It counts as cell-based, human. As for the experimental part:
Undifferentiated hESC line SA002 were exposed to either activin A (100 ng/ml) or activin B (100 ng/ml) in the presence of 5 ng/ml bFGF for 5 days and analyzed for gene expression.
mRNA expression of Foxa2, Sox17, CXCR4, Sox7, CDX2, MT was measured by real-time PCR using the ABI/TaqMan method. In short, RNA was isolated from the cell cultures by using Qiagen's RNeasy system. cDNA was synthesized by using the ABI high capacity cDNA synthesis kit. RT-PCR was performed in a ABI 7500 by using TaqMan probe. The expression level was normalized to CREBBP expression.
Background: Quantitative PCR measures a nucleic acid by following its amplification.

Assay [2] relates to hBS cells. The experiment in a line: Sox17/Sox7 immunostaining of induced definitive endoderm. Format: cell-based, human. Conditions: after 4 days in Activin A. The text has this: We used Activin A, and Activin A in combination with Wnt3a and/or FGF2 to generate DE. After 4 to 5 days in Stage 1 the hBS cell colony differentiated and genetic markers for early DE were examined using quantitative real-time real time-PCR (Q-PCR). Activin A induced a strong wave of early endoderm at day 3 to 5, and was highlighted by high expression levels of Sox17, HNF3beta (HNF3b or HNF3b) and Cxcr4 expression (FIG. 4) and then reduced to near baseline levels (data not shown). […] Furthermore they up regulate early liver markers like AFP or AAT. At this early stage in differentiation and development, this indicates the presence of extraembryonic endoderm (E×E) in intrinsically differentiating colonies (FIGS. 5 and 10). The expression data were confirmed by co-staining of Sox17/Sox7, Sox17/Cxcr4, Sox17/Oct4, Sox7/HNF3b (data not shown). […] The changes of gene expression after Activin A treatment were associated to morphological changes and distinct differentiation pattern of the colonies (FIG. 2). After 4 to 5 days induction with Activin A containing medium cells gathered together and formed a ring of epithelial cells around the colony. […]
Activin A induces definitive endoderm detected by a combination of Sox17+/Sox7-, 80-90% of the total cells in a Activin A or Activin A/FGF2 treated culture are estimated to be Sox17 positive and negative for Sox7 (manual counting in microscope). […]

B1: Activin B (protein, UniProt P09529 293-407, looked up)
Inhibin beta B chain: GLECDGRTNLCCRQQFFIDFRLIGWNDWIIAPTGYYGNYCEGSCPAYLAGVPGSASSFHTAVVNQYRMRGLNPGTVNSCCIPTKLSTMSMLYFDDEYNIVKRDVPNMIVEECGCA
Turning to B1, in assay [1], the “extraembryonal (ExE) markers Sox7, CDX2 and MT compared to activin A” value is reported as “the same or lower”; the “mRNA expression of endodermal markers Foxa2, Sox17 and CXCR4 compared to activin A” value is recorded as “either the same or even higher”.

B2: Activin A (protein, UniProt P08476 311-426, looked up)
Inhibin beta A chain: GLECDGKVNICCKKQFFVSFKDIGWNDWIIAPSGYHANYCEGECPSHIAGTSGSSLSFHSTVINHYRMRGHSPFANLKSCCVPTKLRPMSMLYYDDGQNIIKKDIQNMIVEECGCS
notes: TGF-beta family member used at 100 ng/ml to induce definitive endoderm
For the molecule B2, the “remaining cells Sox17 positive” value in assay [2] is given as “more than 70%”.
